In the DeepSol protein solubility set:

Experiment: soluble on expression in E. coli; label from the status in PepcDB or PDB records

Sequence | soluble on expression in E. coli
MGSDKIHHHHHHMRTVQAISGLVTSRFFGTSTRIMASGKTLNTSNINPNVIKMEYAVRGPIVIRAVELEKELATGAQKPFPNVIKANIGDAHAMGQKPITFIRQLLACIVNPEIMKTDKSIPSDVIEHANAFLGSCGGKSAGAYSQSTGVEIVRKHVAEYIKRRDGGIPCNSEDVCLSGGASESIRNVLKLFINHNNAKKVGVMIPIPQYPLYSATIEEFGLGQVGYYLSESSNWSMDEAELERSFNDHCKEYDIRVLCIINPGNPTGQALSRENIETIIKFAQKKNLFLMADEVYQDNVYAQGSQFHSFKKVLVEMGEPYNKMELASFHSVSKGYMGECGMRGGYVEFLNLDPEVYVLFKKMISAKLCSTVLGQAVIDAVVNPPKEGDASYALWKQEKDAVLASLKERATLVEKAYSSIDGISCNPVQGAMYAFPQITIPQRAVEKAQSLNQQPDFFYAMQLLETTGICIVPGSGFGQKDGTYHFRTTILPQPELFKDMLSRFTDFHQKFLAEYKRLYCHFHLTNNRTSDSFWHTLIDGFPKYKVFVQNRRSTQCAFHSIQLSRF | not soluble
MSNTKNTSDSQESQQSSRKPQRSQATQTSQASQKSQSSQEPRRPKPMEVLREARAQLAELTGMTAESVSSFEQTEEGWVLEVEVLELERVPDTMSLMASYQVELDAEGQLTGYRRARRYERGRADSRGGRKLAAALEHHHHHH | soluble
MHHHHHHSSGRENLYFQGSGTIYGWGHNHRGQLGGIEGAKVKVPTPCEALATLRPVQLIGGEQTLFAVTADGKLYATGYGAGGRLGIGGTESVSTPTLLESIQHVFIKKVAVNSGGKHCLALSSEGEVYSWGEAEDGKLGHGNRSPCDRPRVIESLRGIEVVDVAAGGAHSACVTAAGDLYTWGKGRYGRLGHSDSEDQLKPKLVEALQGHRVVDIACGSGDAQTLCLTDDDTVWSWGDGDYGKLGRGGSDGCKVPMKIDSLTGLGVVKVECGSQFSVALTKSGAVYTWGKGDYHRLGHGSDDHVRRPRQVQGLQGKKVIAIATGSLHCVCCTEDGEVYTWGDNDEGQLGDGTTNAIQRPRLVAALQGKKVNRVACGSAHTLAWSTSKP | soluble
IDEKGRVIIAGIGRFGQVVNRLVRMSGIETVVLDHDMAAVQIMRRFGVKGFFGDPTRPELLQAAGLAEATVLVVAVDDRENAIKIVRYARQVRPDLHIVSRARDRVHVYELYQAGADDIVRETFDSSIRAGRYVLENMGF | not soluble
MPKAEGRIFDFKGHDAIRTDFLEAIDFDGKDEYIKIETDEFSAVCPFSGLPDIGRVIIEYYPDGGKIVELKSLKYYFVSFRNVGIYQEEATKRIYEDLKNLLKTDRIRVTVIYNIRGGIKTTTQMGSLEGKKSGEVE | not soluble
MSLKNVTEKNREIYKQLNDRQEEISRLQRDLIQTKEQVSINSNKILVYESEMEQCKQRYQDLSQQQKDAQKKDIEKLTNEISDLKGKLSSAENANADLENKFNRLKKQAHEKLDASKKQQAALTNELNELKAIKDKLEQDLHFENAKVIDLDTKLKAHELQSEDVSRDHEKDTYRTLMEEIESLKKELQIFKTANSSSDAFEKLKVNMEKEKDRIIDERTKEFEKKLQETLNKSTSSEAEYSKDIETLKKEWLKEYEDETLRRIKEAEENLKKRIRLPSEERIQKIISKRKEELEEEFRKKLKENAGSLTFLDNKGSGEDAEEELWNSPSKGNSERPSAVAGFINQKNLKPQEQLKNVKNDVSFNDSQSMVTNKENNIVDSSAAGNKAIPTFSFGKPFFSSNTSSLQSFQNPFTASQSNINTNAPLRTLNIQPEVAVKAAINFSNVTDLTNNSTDGAKITEIGSTSKRPIESGTSSDPDTKKVKESPANDQASNEEGHHHHHH | soluble
MGSDKIHHHHHHMVQEIAQEIIRSARKKGTQDIYFVPKLDAYELHMRVGDERCKIGSYDFEKFAAVISHFKFVAGMNVGEKRRSQLGSCDYAYDHKIASLRLSTVGDYRGHESLVIRLLHDEEQDLHFWFQDIEELGKQYRQRGLYLFAGPVGSGKTTLMHELSKSLFKGQQVMSIEDPVEIKQDDMLQLQLNEAIGLTYENLIKLSLRHRPDLLIIGEIRDSETARAVVRASLTGATVFSTIHAKSIRGVYERLLELGVSEEELAVVLQGVCYQRLIGGGGIVDFASRDYQEHQAAKWNEQIDQLLKDGHITSLQAETEKISYS | not soluble
MGSDKIHHHHHHMGILYLKEHTSCYNYTKCIREGFLYHKFCDIEMDEEINETDSILFVIEGELEMSCNGKKMKLLAGNMICFGRGSRFKIHSRGKGSIVIAQFDNAVQSCEKISFAQLNSLDSPGDKIYPLEIRDRLHLFLKLLISYLEDGANCVHFHETKLKELFWSIRFYYTKTEQAAFFHPILGNDYDFKKKIFNNYRNARTVKELAGLCGTPLSSFKRKFLKEFREPAGNWLQKQINNIIKYKLADEDIPIGNIAEELHFSSHPQFCRYCKRNFGYTPGEWRKLLKNRDKTPGKLSGRV | not soluble
MSERLSITPLGPYIGAQISGADLTRPLSDNQFEQLYHAVLRHQVVFLRDQAITPQQQRALAQRFGELHIHPVYPHAEGVDEIIVLDTHNDNPPDNDNWHTDVTFIETPPAGAILAAKELPSTGGDTLWTSGIAAYEALSVPFRQLLSGLRAEHDFRKSFPEYKYRKTEEEHQRWREAVAKNPPLLHPVVRTHPVSGKQALFVNEGFTTRIVDVSEKESEALLSFLFAHITKPEFQVRWRWQPNDIAIWDNRVTQHYANADYLPQRRIMHRATILGDKPFYRAGLEHHHHHH | soluble
MKTVTEFQNKNILVLGIAKSGYAAATLLQKLGANVIVNDGKPLAENVLAAELQAKGMDVVCGGHPLELLERNISLVVKNPGIPYSNPILVAAKEKQIPIVTEVELAYRISEAPFVGITGSNGKTTTTMLTFEMLKEGQKHPVIAGNIGTVACEVAQDAKENEVVVTELSSFQLMGVELFQPKIAAFLNLFEAHLDYHGTKKEYGLAKANIFKNQTENDYSVINADDADVMALSAYSKGQKVLFSTTKEIEDGACIKDNALYFKAEKVVEVDDIVLPGQHNLENILAAMSIAKLLGVSNEAITAVLKRFTGVKHRLEYVTTINNRKFYNDSKATNMLATEKALSAFTQPTVLLAGGLDRGNEFDDLIPYFKNVKAIVTFGQTAPKLVRAAEKAGLDTIESVDTLDEAVVKAYAHSTDGDVILLSPACASWDQFKTFEERGDIFIQAVHKLI | not soluble
MVWSATSRTKYSIKKSFFGCSMIELSNVNLHYPVPGHFSHSLQTTISSKIGGVLGSSSAKDKEMKYVHALRDINLKLEDSSRLGIIGHNGAGKTTLLRLLSQVYPPTSGKVTIEGKISALTDFTLGMDPNATGLKNIEFRLVFMGCTFKEAQQAVEEIVAFSELGEFINLPVRTYSTGMFLRLAFAISTHFTPDILILDEVIGAGDETFREKALSRLESLIKKSRMVVLSSHDLNAIKQYCDQAIVMEKGEIVFNGTPQSCIDYYLNSVKK | not soluble
GNGFDVENYKDKEIVIVAGGTGVSPVRGVVEYFAKNSKEAKSVTLIAGFKTPKDILFSEDFKEWKNNINIILTVDSAEGDSNFKEGLVTKYIPELKLQNVKEASAIVVGPPAMMRFSTQGLLDVGFKEENMWISQERKMCCGIGKCGHCKIDDVY | not soluble
ELVMTQTPLSLPVSLGDQASISCRSSQSLVHSNGNTYLHWYLQKPGQSPKFLIYKVSNRFSGVPDRFSGSGSGTDFILKISRVEAEDLGVYFCFQSTHFFPTFGGGTKLEIKRTVAAPSVFIFPPSDEQLKSGTASVVCLLNNFYPREAKVQWKVDNALQSGNSQESVTEQDSKDSTYSLSSTLTLSKADYEKHKVYACEVTHQGLSSPVTKSFNRGEC | soluble
MGSDKIHHHHHHMQKDKIKTDWSHGENPEDYKCCVAFHGHDCPGLAVGYRAAQAALAALCGERAEDEELVAIVETDACGVDALQVLTGCTFGKGNLIYQDHGKHVFTLIERKSGRGVRVALKAGVMEMNERHLTLMEKVHQMTATPHETAEFWKIHSQKALEILQKPIETLFNIQPINRTLPPKARREPSRLCARCGEPAMGSKLVVLDGREVCRDCLQPEER | not soluble
